{"source": "the DeepSol protein solubility set", "data": [{"assay": "soluble on expression in E. coli; label from the status in PepcDB or PDB records", "values": [{"sequence": "MANDKIVIHGARAHNLKNIDVTIPRDKMVVVTGLSGSGKSSLAFDTLYAEGQRRYVESLSAYARQFLGQMDKPDVDSIDGLSPAISIDQKTTSKNPRSTVGTVTEINDYLRLLFARVGHPICPNDHIEITSQSVEQMVDKVLELPERTKIQILAPVVVKKKGQHKKVFEMIQREGYVRMRVDGETYDVSEAPELEKNKKHDIAIVIDRIVVKEGIRSRLFDSFEAALRLAEGYAIVDVIGQEEMLFSEHYACPYCGFTVGELEPRLFSFNAPFGACPDCDGLGVKLEVDKDLVIPDPTKTLREGAIVPWNPISSQYYPQMLEQAATSFGIDMDTPFEELPADQQEIILNGSGEKNFHFHYENDFGGVRDVEVPFEGILKNIKRRYHETNSDFTRDQMRLYMTELTCRSCQGYRLNPQALAVKINGTHIGEVSELAIKNAVQFFEGVSLSEQETTIARPILKEVEDRLTFLKNVGLDYLTLSRAAGTLSGGEAQRIRLATQIGSNLSGVLYILDEPSIGLHQRDNDRLIDSLKKMRDLGNTLIVVEHDEDTMMASDYLIDVGPGAGHLGGEIVAAGTPEEVAKNPHSLTGQYLSGKKVIPVPKERRKGNGKAIKVTGASENNLKNVSVEFPLGEFVAVTGVSGSGKSTLVNQILKKALAQKLNRNSNKPGKHKSITGYEAIEKIVDIDQSPIGRTPRSNPATYTSVFDDIRDLFAQTNEAKVRGYKKGRFSFNVKGGRCEACRGDGIIKIEMHFLPDVYVPCEVCHGKRYNSETLEVHYKGKNISDILDMTVEDAVEFFKHIPKIHRKLQTIVDVGLGYVTLGQPATTLSGGEAQRMKLASELHKNSNGKNFYILDEPTTGLHTDDIARLLLVLERLVEAGNTVLVIEHNLDVIKSADHVIDLGPEGGDGGGTIVATGTPEEVAKVKDSYTGYYLKRVLK", "soluble on expression in E. coli": "not soluble"}, {"sequence": "MANLKSLPVGDKAPEVVHMVIEVPRGSGNKYEYDPDLGAIKLDRVLPGAQFYPGDYGFIPSTLAEDGDPLDGLVLSTYPLLPGVVVEVRVVGLLLMEDEKGGDAKVIGVVAEDQRLDHIQDIGDVPEGVKQEIQHFFETYKALEAKKGKWVKVTGWRDRKAALEEVRACIARYKG", "soluble on expression in E. coli": "soluble"}, {"sequence": "MANPLYQKHIISINDLSRDDLNLVLATAAKLKANPQPELLKHKVIASCFFEASTRTRLSFETSMHRLGASVVGFSDSANTSLGKKGETLADTISVISTYVDAIVMRHPQEGAARLATEFSGNVPVLNAGDGSNQHPTQTLLDLFTIQETQGRLDNLHVAMVGDLKYGRTVHSLTQALAKFDGNRFYFIAPDALAMPQYILDMLDEKGIAWSLHSSIEEVMAEVDILYMTRVQKERLDPSEYANVKAQFVLRASDLHNAKANMKVLHPLPRVDEIATDVDKTPHAWYFQQAGNGIFARQALLALVLNRDLVL", "soluble on expression in E. coli": "soluble"}, {"sequence": "MANPTVIKLQDGNVMPQLGLGVWQASNEEVITAIQKALEVGYRSIDTAAAYKNEEGVGKALKNASVNREELFITTKLWNDDHKRPREALLDSLKKLQLDYIDLYLMHWPVPAIDHYVEAWKGMIELQKEGLIKSIGVCNFQIHHLQRLIDETGVTPVINQIELHPLMQQRQLHAWNATHKIQTESWSPLAQGGKGVFDQKVIRDLADKYGKTPAQIVIRWHLDSGLVVIPKSVTPSRIAENFDVWDFRLDKDELGEIAKLDQGKRLGPDPDQFGG", "soluble on expression in E. coli": "soluble"}, {"sequence": "MANSFTFWNDCVEPEDLEEMWMDPAVSAEWIDVGETKGQKVHLSRDPDGQPYLTQTEMRAVSDITVRRHFDSILDSEMICAIAELESDRKPLIMRYSKKTKETGLGILQVFEKTAAWLAGGQGYQAYNVDDNPDLLHKPFINVYFGAAYLKWLTDYQNNQRSEEFVVRAYNGGTKKATHKSTLPYWKRYLAVKESLPSRKHGDAGPSSFRPTNPASPGSNTDFTYWDSRASPEDMEDMWNQSEICKEWTKSKEERGKVRFSQDGEKRPYLSRGELKAVAEIIVSKYFSTKGIRVPLVCAIADTVCMRFVNGIKKHVGILGVDYSTASWLYSELGYRAYRVDSADDLTKPFISMYFGVAYLVWLSEYEGSQRSNQFIVQAYMKGPDHVDLEESCPLWLKFEQALSYYEESKRDSGSCVIL", "soluble on expression in E. coli": "not soluble"}, {"sequence": "MANSMIFKAEGNQLIAERVFDAPRELVFKMFTEAEHLKNWWGPRGWDLTVCNIDFRPGGSWHFCMKCVDENQGDFYGYESWGKALYREIVDGEKIVYVDYFSDSEGNLSEEMPAAEITLTFIDLGGKTKIVNQVEYPSAEELQKGLDMGMEQGFTETWDRLVEYLQDIQLEHHHHHH", "soluble on expression in E. coli": "not soluble"}, {"sequence": "MAPALVQRRKKVAMIGSGMIGGTMGYLCALRELADVVLYDVVKGMPEGKALDLSHVTSVVDTNVSVRAEYSYEAALTGADCVIVTAGLTKVPGKPDSEWSRNDLLPFNSKIIREIGQNIKKYCPKTFIIVVTNPLDCMVKVMCEASGVPTNMICGMACMLDSGRFRRYVADALSVSPRDVQATVIGTHGDCMVPLVRYITVNGYPIQKFIKDGVVTEKQLEEIAEHTKVSGGEIVRFLGQGSAYYAPAASAVAMATSFLNDEKRVIPCSVYCNGEYGLKDMFIGLPAVIGGAGIERVIELELNEEEKKQFQKSVDDVMALNKAVAALQAPG", "soluble on expression in E. coli": "soluble"}, {"sequence": "MAPHPEAAALLARSHRLGADPRNTNYAGGNASAKGTATDPVTGGDVELMWVKGSGGDLGTLTEAGLAVLRLDRLHALKGVYPGVEREDEMVAAFDYCLHGKGGAAPSIDTAMHGLVDAAHVDHLHPDSGIALACAADGEKLTAECFGDSVAWVPWRRPGFQLGLDIAAVKEANPQTIGCVLGGHGITAWGATAEECERNSLHIIRTAEAFLAERGKAEPFGPVIEGYAALEHHHHHH", "soluble on expression in E. coli": "not soluble"}, {"sequence": "MAPKFTLNQERDNDRERTRASYNNDRRRNDYDPRACYKCGKLGHFARSCHVVTQPTTAYITCYFCSEEGHRSNGCPNKRTDQVNPKGHCYWCGNQDHRFNLIIWRSRCLFRLMKPKYAF", "soluble on expression in E. coli": "soluble"}, {"sequence": "MAPKSILITGANRGIGLGLLKQFIKNKDVQIIIGTCRDPSNATELNSIKDTRVHILQLDIDCDDSIRKLGAEVEKLVGEDGLTVLINNAGIFVPYDIDGEKSRSTLIRQLETNTISTVLITQELLPLLKRAAAKNRGEGYSINRSAIINISSTAGSITKIDASYNIPLVAYRMSKSALNSFGKSCSVDLAKYHILVTTFCPGWVKTDMGGANGKLEIDDATKTLSDNILILGDAHHGAYLNADLTVIPN", "soluble on expression in E. coli": "soluble"}, {"sequence": "MAPSSLSQSFDHAAQTPEIFEKVPSRTVGRKATITKEELFQAALNLIGPEKSISSLSLREVAREAGIAPNSFYRHFRDIDELAIDLINRAGLVLRHIIRESRLQASKQNSIIRSSVEVFIQQLDADEGNLSLLLREAYTGSKSYKEAVERQLNFFQQELQEDLIRLERLNHSRLSHPDLVARAITQLVFTMGAKVLDLPINQRTAVAEQTMIMIRMILEGARHLDESKIR", "soluble on expression in E. coli": "soluble"}, {"sequence": "MAQEEEDVRDYNLTEEQKAIKAKYPPVNRKYEYLDHTADVQLHAWGDTLEEAFEQCAMAMFGYMTDTGTVEPLQTVEVETQGDDLQSLLFHFLDEWLYKFSADEFFIPRVGRRIFIVQAPSGNRSQSNNIFSNAGL", "soluble on expression in E. coli": "soluble"}, {"sequence": "MAQHTYDEESVQELLGWAKKMLETKNYPTEKYQVNACTSIIDGKLYLESLISMISKNWENPTFHPTIEQLWEYREKWEGQKE", "soluble on expression in E. coli": "not soluble"}, {"sequence": "MAQLFFRYGAMNSGKTIEILKVAHNYEEQDKSVIILTSGLDNRDGVGYVASRIGLKREATPVFDDTNIFEIVKQTNPDAACVLIDEAQFLKKHHVLELADIVDELKIPVMTFGLKNDFRNELFEGSKYLLLYADKIEEMKTICWFCRKKAIMNLRFHDGQPVYEGEQVQIGGNEAYYPVCRHHYFYPPKLTKLEHHHHHH", "soluble on expression in E. coli": "soluble"}, {"sequence": "MAQRYKRMSSTDINEYMPENLAKAIANPLFPALDSLLRAGRHVSSDDLDNHAFLSDFEPDLALFYQRYHTELVRAPEGFFYLRPRSTSLINRSVLSELDMLVGKVLCFLYLSPERLAHEGIFTNQELYDELLTLVEEKKLMKLVTNRASGSDLDREKLFEKVRTSLRRLRRLGMVITIGDTGKFRITEAVFRFGADVRLGGDVREAQLRLIRDGEAVVHTPEPSQQSLLENPTAEYDEEQTEWEDEALEHHHHHH", "soluble on expression in E. coli": "soluble"}, {"sequence": "MAQSETVERILDAAEQLFAEKGFAETSLRLITSKAGVNLAAVNYHFGSKKALIQAVFSRFLGPFCASLEKELDRRQAKPEAQHATLEDLLHLLVSQAMAVKPRSGNDLSIFMRLLGLAFSQSQGHLRKYLEEVYGKVFRRYMLLVNEAAPKLPPIELFWRVHFMLGAAAFSMSGIKALRAMAETDFGVNTSTEQVMHLMVPFFAAGMRAESGIDDPLLAGAQLRPRNKTPAKA", "soluble on expression in E. coli": "soluble"}, {"sequence": "MAQVLRGTVTDFPGFDERADAETLRKAMKGLGTDEESILTLLTSRSNAQRQEISAAFKTLFGRDLLDDLKSELTGKFEKLIVALMKPSRLYDAYELKHALKGAGTNEKVLTEIIASRTPEELRAIKQVYEEEYGSSLEDDVVGDTSGYYQRMLVVLLQANRDPDAGIDEAQVEQDAQALFQAGELKWGTDEEKFITIFGTRSVSHLRKVFDKYMTISGFQIEETIDRETSGNLEQLLLAVVKSIRSIPAYLAETLYYAMKGAGTDDHTLIRVMVSRSEIDLFNIRKEFRKNFATSLYSMIKGDTSGDYKKALLLLCGEDD", "soluble on expression in E. coli": "soluble"}, {"sequence": "MARKKVQRKLDGWKSKEWYNIEAPAYLNRVIVGTTMAGDPSLLVGRNVETTVGELTNDMTKNNTKVILRVNNVVGDIATTDLMGHELTTDYVRSIVKRQTSRIDANVDVRTKDGFVIRVKPTCFTIKRARSSQMQAIREMMVDIVKKRASETDFETFMQEAILGRLSAAIYRQAKFIYPLRRVEIRKTQVEAMPAAAPAAPAAALEHHHHHH", "soluble on expression in E. coli": "soluble"}, {"sequence": "MARKLIDISVPLQNDVPADPPGNHPTIQYIDHQQGLPRMLQFFPGLKAEDLPDGQGWAVEQVSLSTHNGTHLDAPWHFHPTMNRGERALTIDEVPLDWCLQPGVKLDFRHLPDGYVVTAKDVENELERIGHTLAPLEIVVVNTSAGAKFGRPDYVNSGCGVGYEATMYLLERGVRLTGTDAWSWDAPFVFTAQRYAETKDASLIWEGHKASRHIGYCHLEKLHNLELLPATGFMVSCFPVKIERASAGWTRAVAILNDAAALEHHHHHH", "soluble on expression in E. coli": "soluble"}, {"sequence": "MARKSKGSRSSTRAVKQTDHFQVDVKLQSRPDHVRAPRANNENVNYTPVKEAKIQKILDHQLYNTHYVEYQVEMSDGTEEMLTEFDFDNKKTQKMLAEYKFKVTELEDDGSKEYVVEKIVAHRYPNDRLNQPLYLVMWRGFPDPVSNTEMWGEELENCQELLDAYNEEHDIDLSKTVMNKPPKKSKHQDTSDDSEESEDEEEKSPRKRSSKKRRAASVSDSDSDSDSDFDKKKWKKNKAKRSKRDDSSDDDSEMERRRKKSKKSKKSKKFKKSEKRKRAVNDSSSDDEDEEEKPEKRSKKSKKAVIDSSSEDEEEEKSSKKRSKKSKKESDEEQQASDSEEEVVEVKKNSKSPKKTPKKTAVKEESEESSGDEEEEVVKKKKSSKINKRKAKESSSDEEEEVEESPKKKTKSPRKSSKKSAAKEESEEESSDNEEEEEVDYSPKKKVKSPKKSSKKPAAKVESEEPSDNEEEEEEVEESPIKKDKTPRKYSRKSAAKVESTESSGNEEEEEVEESPKKKGKTPRKSSKKSAAVEESDNEEEDVEESPKKRTSPRKSSKKRAAKEESEESSDNEVEEVEDSPKKNDKTLRKSPRKPAAKVESEESFGNEEEEEVEESPKKKGKTPRKSSKKSAAKEESEESSDDEEEEQAEETNGSHTESPTKSKTDESDNSTSSDEDDE", "soluble on expression in E. coli": "not soluble"}, {"sequence": "MARKTKQQALETRQHILDVALRLFSQQGVSATSLAEIANAAGVTRGAIYWHFKNKSDLFSEIWELSESNIGELEIEYQAKFPDDPLSVLREILVHILEATVTEERRRLLMEIIFHKCEFVGEMVVVQQAQRSLCLESYDRIEQTLKHCINAKMLPENLLTRRAAILMRSFISGLMENWLFAPQSFDLKKEARAYVTILLEMYQLCPTLRASTVNGSP", "soluble on expression in E. coli": "not soluble"}]}]}
